B1: RUPA-117 (antibody, V domains shown)
VH: QLQLQESGPGLVKPSETLSLTCTVSGGSISRSPYYWGWIRQPPGKGLEWFGSVYNNGSTYYNPSLKSRVTISVDTSKNQFSLKLSSVTAADTALYYCARHGGSTGMKVVVIAPPDYWGQGTLVTVSS
VL: DIQMTQSPATLSASVGDRVTITCRASQSISIWLAWYQQKPGEAPKLLIYKASSLQSGVPSRFSGSASGTKFSLTISSLQPDDFATFYCQQYHSYPYTFGQGTKLEIK
notes: human IgG1; source: recombinant human IgG1, 293T (Protein A purified) or GenScript
B2: RUPA-89 (antibody, V domains shown)
VH: DVYLLESGGGLVQPGGSLRLSCAASGFTFSNDAMSWVRQAPGKGLEWVSGILASAPRTYYADSVKGRFIISRDNSKNTLYLQMNSLRVEDTAIYYCAKEGILRPFDPWGQGTLVTVSS
VL: QSALTQPASMSGSPGQSITISCTGTSSDVGGFKYVSWYQHHPDKAPKLIIYEVNQRPSGVSNRFSGSKSGNTASLTISGLQAEDEADYYCSSYTSITYHHVFGTGTKVTVL
notes: as for B1
B3: RUPA-100 (antibody, V domains shown)
VH: QVQLVESGGGVVQPGRSLRLSCAASGFSFSHYGMHWVRQAPGKGLEWVAVISYDGNYKYYGDSVKGRFTISRDNFKNTLYLQMNSLRPEDTAVYYCAKGKAHSCVSTSCYTDFWGQGTLVTVPS
VL: SYELTQPPSVSVSPGQTARITCSGDALPKKYAYWYQQKSGQAPVLVIYEDSKRPSGIPERFSGSSSGTMATLTISGAQVEDEGDYYCYSTDSSYNHRGVFGGGTKLTVL
notes: as for B1
B4: RUPA-154 (antibody, V domains shown)
VH: QVQLVQSGAEVRKPGASVKVSCRTSGYTFTDYYMHWVRQAPGEGLEWMGSINPKSGGTSYAERFQGRVTMTMETSVSTAYLDLSSLRSDDTAVYYCARLLYSRAVYYYGMDVWGQGTTVTVSS
VL: SYELTQPPSVSVAPGKTARITCGGKDLGSKSVHWYQQKPGQAPVLVIYYDNIRPSGIPERFSGSNSGNTATLTISRVEAGDEADYYCQVWDSSSDHYVFGRGAKVTVL
notes: as for B1
B5: RUPA-106 (antibody, V domains shown)
VH: EVELLESGGGLVQPGGSLRISCAASGFIFNTYAMSWVRQAPGKGLEWVSAISGSGRSTYYADSVKGRFTISRDNSNNTLYLQMNSLRAEDTAVYYCAKDTHSNILYYLFDYWGQGTLVTVSS
VL: EIVLTQSPATLSLSPGERGTLSCRASQSVSSSYLGWYQQKPGQAPRLLIYGASSRATGIPDRFSGSGSGTDFTLTISRLEPEDFAVYYCHQYGISPATFGQGTKVEIK
notes: as for B1
B6: RUPA-43 (antibody, V domains shown)
VH: QVLLVQSGAEVKKPGASVKVSCKASGYTFLYHDISWVRQATGQGLEWMGWMNPNTGDTGYAQRFQGRVTMTRDMSISTAYLELGSLSSEDTAVYYCARGVGSYHGSGGWLDPWGQGTLVIVSS
VL: QSVLTQPPSVSETPGQRVTISCSGTSSNIGINTVNWYQQLPGTAPKLLIHNDNQRPSGVPDRFAGSKSGSSAALAISGLQSEDEADYYCGTWDDSLKRRVFGGGTKLTVL
notes: as for B1
B7: RUPA-140 (antibody, V domains shown)
VH: EVQLLESGGGLVQPGGSLRLSCVASGFSFSNFAMNWVRQAPGKGLEWVSAISGSGGSTYYIDSVKGRFSISRDTSKNTLYLQMNSLRAEDTAVYYCAKVGGRSIFGEATDYWGQGSLVTVSS
VL: DIQMTQSPSSLSASVGDRVTITCRASQSINKYLNWYQQKPGRAPKLLIQVASSLQSGVPSRFSGSGSGTDFTLTISSLQPEDFATYYCQQTYTLPLIFGGGTKVEIK
notes: source: recombinant human IgG1, 293T (Protein A purified) or GenScript

Tests used:
Test in all cases: ELISA
Details in all cases: both partners purified
[1] = biological target: T1, recombinant full-length Pfs48/45 (Plasmodium falciparum 3D7, UniProt Q8I6T1)
T1 sequence (Q8I6T1 28-428): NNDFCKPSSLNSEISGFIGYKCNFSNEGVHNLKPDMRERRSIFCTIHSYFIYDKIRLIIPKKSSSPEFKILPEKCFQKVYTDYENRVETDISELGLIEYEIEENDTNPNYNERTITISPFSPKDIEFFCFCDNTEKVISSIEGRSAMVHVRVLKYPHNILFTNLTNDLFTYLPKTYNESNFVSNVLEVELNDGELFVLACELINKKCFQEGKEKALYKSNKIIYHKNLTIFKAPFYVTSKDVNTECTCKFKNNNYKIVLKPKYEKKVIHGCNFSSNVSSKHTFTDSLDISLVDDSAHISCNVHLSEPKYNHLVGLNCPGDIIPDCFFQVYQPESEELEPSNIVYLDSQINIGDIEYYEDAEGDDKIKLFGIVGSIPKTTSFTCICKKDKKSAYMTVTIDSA

Pfs48/45 D2-3 [2] = biological target: T2, Pfs48/45 D2-3 (Plasmodium falciparum 3D7, UniProt Q8I6T1)
T2 sequence (Q8I6T1 184-428): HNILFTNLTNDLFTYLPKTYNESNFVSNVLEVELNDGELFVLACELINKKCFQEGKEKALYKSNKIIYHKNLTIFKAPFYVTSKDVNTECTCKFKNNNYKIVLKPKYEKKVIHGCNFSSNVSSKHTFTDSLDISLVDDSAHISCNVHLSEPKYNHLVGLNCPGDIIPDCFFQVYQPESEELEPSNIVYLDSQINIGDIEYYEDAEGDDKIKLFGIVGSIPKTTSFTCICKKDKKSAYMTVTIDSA

Pfs48/45 D3 [3] = biological target: T3, Pfs48/45 D3 (Plasmodium falciparum 3D7, UniProt Q8I6T1)
T3 sequence (Q8I6T1 287-428): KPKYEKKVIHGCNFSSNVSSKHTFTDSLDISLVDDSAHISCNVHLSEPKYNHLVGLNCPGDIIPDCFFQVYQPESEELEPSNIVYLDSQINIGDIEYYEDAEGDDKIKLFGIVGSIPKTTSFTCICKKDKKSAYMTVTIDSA

Pfs48/45 D1-2 [4] = biological target: T4, Pfs48/45 D1-2 (Plasmodium falciparum 3D7, UniProt Q8I6T1)
T4 sequence (Q8I6T1 28-289): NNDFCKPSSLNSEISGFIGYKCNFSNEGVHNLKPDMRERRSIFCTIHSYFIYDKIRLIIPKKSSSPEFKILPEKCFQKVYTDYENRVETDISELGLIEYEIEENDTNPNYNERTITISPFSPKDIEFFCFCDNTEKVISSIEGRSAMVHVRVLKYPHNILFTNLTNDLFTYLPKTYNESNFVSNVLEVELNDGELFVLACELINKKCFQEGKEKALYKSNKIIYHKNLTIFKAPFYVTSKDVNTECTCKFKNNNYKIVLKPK

[5] = biological target: T1, recombinant full-length Pfs48/45; remark: listed apart in the source
Pfs48/45 D1-2 [6] = biological target: T4, Pfs48/45 D1-2; remark: listed apart in the source
Pfs48/45 D2-3 [7] = biological target: T2, Pfs48/45 D2-3; remark: listed apart in the source
Pfs48/45 D3 [8] = biological target: T3, Pfs48/45 D3; remark: listed apart in the source

Binder	binding result [1]	binding result (Pfs48/45 D2-3 [2])	binding result (Pfs48/45 D3 [3])	binding result (Pfs48/45 D1-2 [4])	binding result [5]	binding result (Pfs48/45 D1-2 [6])	binding result (Pfs48/45 D2-3 [7])	binding result (Pfs48/45 D3 [8])
B1	binds	binds	binds					
B2	binds	binds	binds					
B3	binds	binds	binds					
B4	binds	binds	binds	binds				
B5	binds	binds	binds					
B6					binds	binds	binds	no binding (tested: 10 ug/ml)
B7	binds	binds	binds					

Reference: paper PMC9942873 (Immunity, 2023)
